Source: patent US6432922
pIC50: −log10 of the molar value. “And” between values parts separate entries of the source, which are not always exact repeats. Identical values can stand only once.

Experiments:
Experiment in all cases: cell-based or functional assay
[1] = biological target: Human rt-PA (Activase), obtained from Genentech Inc. (human) (UniProt P00750)
[2] = biological target: Purified human plasmin, obtained from Enzyme Research Laboratories, Inc. (human) (UniProt P00747)
[3] = biological target: Urokinase (Abbokinase), manufactured by Abbott Laboratories (UniProt P00749)

Chain of Human rt-PA (Activase), obtained from Genentech Inc. (human) (P00750 36-562 limits assumed): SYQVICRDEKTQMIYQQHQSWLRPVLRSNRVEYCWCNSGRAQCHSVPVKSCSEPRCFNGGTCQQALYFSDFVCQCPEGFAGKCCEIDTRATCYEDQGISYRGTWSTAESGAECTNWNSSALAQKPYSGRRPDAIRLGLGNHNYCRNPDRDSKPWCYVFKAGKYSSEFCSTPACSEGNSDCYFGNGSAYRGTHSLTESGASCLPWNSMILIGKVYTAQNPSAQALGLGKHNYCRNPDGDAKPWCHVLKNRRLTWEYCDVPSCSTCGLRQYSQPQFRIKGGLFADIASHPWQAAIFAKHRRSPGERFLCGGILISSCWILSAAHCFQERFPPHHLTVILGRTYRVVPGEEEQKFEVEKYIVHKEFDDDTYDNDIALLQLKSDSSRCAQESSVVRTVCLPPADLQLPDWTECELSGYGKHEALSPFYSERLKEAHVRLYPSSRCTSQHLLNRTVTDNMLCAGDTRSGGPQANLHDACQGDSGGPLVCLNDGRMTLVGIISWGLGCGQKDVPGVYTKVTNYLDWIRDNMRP
Chain of Purified human plasmin, obtained from Enzyme Research Laboratories, Inc. (human) (P00747 97-810 limits assumed): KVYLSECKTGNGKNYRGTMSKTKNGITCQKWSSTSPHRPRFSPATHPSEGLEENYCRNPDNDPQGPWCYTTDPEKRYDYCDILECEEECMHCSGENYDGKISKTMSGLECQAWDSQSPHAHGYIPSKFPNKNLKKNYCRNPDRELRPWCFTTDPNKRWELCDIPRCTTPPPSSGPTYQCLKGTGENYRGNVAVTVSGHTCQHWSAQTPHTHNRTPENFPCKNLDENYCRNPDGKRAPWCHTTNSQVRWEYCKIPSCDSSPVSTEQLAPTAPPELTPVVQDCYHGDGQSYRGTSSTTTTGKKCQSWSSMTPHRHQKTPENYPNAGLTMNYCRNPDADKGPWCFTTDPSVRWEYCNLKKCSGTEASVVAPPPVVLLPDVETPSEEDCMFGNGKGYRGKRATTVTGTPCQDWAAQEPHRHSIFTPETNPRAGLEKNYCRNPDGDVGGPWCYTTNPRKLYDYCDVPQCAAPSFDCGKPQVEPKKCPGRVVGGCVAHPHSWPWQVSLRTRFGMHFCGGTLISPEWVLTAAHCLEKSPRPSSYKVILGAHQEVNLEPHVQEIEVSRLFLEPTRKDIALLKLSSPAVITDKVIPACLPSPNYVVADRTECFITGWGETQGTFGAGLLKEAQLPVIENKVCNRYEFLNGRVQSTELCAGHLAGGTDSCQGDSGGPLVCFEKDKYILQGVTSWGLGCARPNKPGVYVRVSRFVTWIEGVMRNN

Substance | pIC50 [1] | pIC50 [2] | pIC50 [3]
benzyloxycarbonyl-D-seryl-L-azetidine-2-carbonyl-argininal (peptide) | < 5.60 | < 6.60 and > 5.60 | > 7.00
benzyloxycarbonyl-D-seryl-L-β-cyanoalanine-argininal (peptide) | < 5.60 | < 6.60 and > 5.60 | > 7.00
benzyloxycarbonyl-D-seryl-L-3,4-dehydroprolyl-argininal (peptide) | < 5.60 | < 7.00 and > 6.60 | > 7.00
benzyloxycarbonyl-D-seryl-L-allylglycyl-argininal (peptide) | < 5.60 | < 6.60 and > 5.60 | < 7.00 and > 6.60
benzyloxycarbonyl-D-seryl-2-aminobutanoyl-argininal (peptide) | < 5.60 |  | > 7.00
benzyloxycarbonyl-D-seryl-2-norvalyl-argininal (peptide) | < 5.60 |  | < 7.00 and > 6.60
benzyloxycarbonyl-D-seryl-L-propargylglycyl-argininal (peptide) | < 5.60 | < 6.60 and > 5.60 | > 7.00
benzenesulfonyl-D-seryl-azetidyl-argininal, trifluoroacetate salt (peptide) |  | < 6.60 and > 5.60 | > 7.00
benzyloxycarbonyl-D-seryl-pipecolyl-argininal (peptide) | < 5.60 |  | < 7.00 and > 6.60
